# Article PMC9359175
# Legend:
# [1] = molecular target: 5HB-H2 (SARS-CoV-2 5-helix bundle, optimal construct) (SARS-CoV-2) (UniProt P0DTC2); test: ITC; […]; 298 K; 20 mM HEPES pH 7.5, 150 mM NaCl; […]
# [2] = molecular target: 5HB-H2 (SARS-CoV-2 5-helix bundle, optimal construct) (SARS-CoV-2) (UniProt P0DTC2); test: BLI; […]; 20 mM MES pH 6.0, 150 mM NaCl, 0.05% Tween 20, 298 K; 1:1 model
# [3] = molecular target: 5HB-H2 (SARS-CoV-2 5-helix bundle, optimal construct) (SARS-CoV-2) (UniProt P0DTC2); test: BLI; […]; 20 mM MES pH 5.5, 150 mM NaCl, 0.05% Tween 20, 298 K; 1:1 model
# [4] = molecular target: 5HB-H2 (SARS-CoV-2 5-helix bundle, optimal construct) (SARS-CoV-2) (UniProt P0DTC2); test: BLI; pH 4.5
# [5] = molecular target: 5HB-H2 (SARS-CoV-2 5-helix bundle, optimal construct) (SARS-CoV-2) (UniProt P0DTC2); test: BLI; […]; 20 mM HEPES pH 7.5, 150 mM NaCl, 0.05% Tween 20, 298 K; 1:1 model
# [6] = molecular target: 5HB-H2 (SARS-CoV-2 5-helix bundle, optimal construct) (SARS-CoV-2) (UniProt P0DTC2); test: crystal structure
# [7] = molecular target: 5HB-H2 (SARS-CoV-2 5-helix bundle, optimal construct) (SARS-CoV-2) (UniProt P0DTC2); test: BLI; pH 5
substance,measurement,setting,value
"HR2P, 36-mer peptide derived from SARS-CoV-2 S HR2 (D1168-L1203)",Kd,[1],5.12 nM
same,Kd,[2],3.22 nM
same,Kd,[3],3.08 nM
same,Kd,[4],1.37 nM
same,Kd,[5],4.91 nM
same,stoichiometry N,[6],1
same,Kd,[7],2.43 nM
